One protein from publication PMC6462504, “Dopamine transporter forms stable dimers in the live cell plasma membrane in a phosphatidylinositol 4,5-bisphosphate–independent manner” (The Journal of Biological Chemistry, 2019) can be followed below.

The data set deals with the molecule itself. Nature of the data set: single-molecule brightness analysis (TOCCSL); live CHO cells stably expressing mGFP–hDAT, TIRF microscopy of the plasma membrane, room temperature; mobile fraction only; also at low (~5/μm^2) and high (~40/μm^2) surface density and after cholesterol oxidase (2 units/ml, 30 min), MβCD (5 mM, 1 h) or m-3M3FBS (25 μM, 20 min): distribution unchanged.

B1: human dopamine transporter fused to monomeric GFP (mGFP–hDAT) (natural protein, UniProt Q01959 1-620, looked up)
chain: MSKSKCSVGLMSSVVAPAKEPNAVGPKEVELILVKEQNGVQLTSSTLTNPRQSPVEAQDRETWGKKIDFLLSVIGFAVDLANVWRFPYLCYKNGGGAFLVPYLLFMVIAGMPLFYMELALGQFNREGAAGVWKICPILKGVGFTVILISLYVGFFYNVIIAWALHYLFSSFTTELPWIHCNNSWNSPNCSDAHPGDSSGDSSGLNDTFGTTPAAEYFERGVLHLHQSHGIDDLGPPRWQLTACLVLVIVLLYFSLWKGVKTSGKVVWITATMPYVVLTALLLRGVTLPGAIDGIRAYLSVDFYRLCEASVWIDAATQVCFSLGVGFGVLIAFSSYNKFTNNCYRDAIVTTSINSLTSFSSGFVVFSFLGYMAQKHSVPIGDVAKDGPGLIFIIYPEAIATLPLSSAWAVVFFIMLLTLGIDSAMGGMESVITGLIDEFQLLHRHRELFTLFIVLATFLLSLFCVTNGGIYVFTLLDHFAAGTSILFGVLIEAIGVAWFYGVGQFSDDIQQMTGQRPSLYWRLCWKLVSPCFLLFVVVVSIVTFRPPHYGAYIFPDWANALGWVIATSSMAMVPIYAAYKFCSLPGSFREKLAYAIAPEKDRELVDRGEVRQFTLRHWLKV
notes: human dopamine transporter (hDAT); XhoI/HindIII fragment of hDAT cDNA ligated into mGFP-C1, then cloned into pIB2; mGFP is fused to the cytosolic N terminus of hDAT; also called mEGFP–hDAT; mGFP–DAT; source: CHO cells stably expressing mGFP–hDAT (viral transduction, blasticidine selection), in the live cell plasma membrane; not shown: mGFP (eGFP with A206K), N-terminal, kept
The term stoichiometry N denotes a count of units in the complex or per binding partner. As to B1, the “stoichiometry N” value worked out at 2.
